In the supplement of paper PMC12636428:

Test system: Saccharomyces cerevisiae
Experiment: transcriptional activation domain activity (GFP:mCherry ratio, weighted mean of sorted bins, harmonized to initial dataset scale) (arbitrary fluorescence ratio units); higher = stronger transcriptional activation
Settings: beta-estradiol 1 µM; induction time 4 h
How it was run: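 After a 1:5 dilution into SC with 1 uM beta-estradiol and 4 hours at 30 °C, yeast diploids carrying a GFP reporter and URA3-integrated barcoded tiles were sorted into 8 bins by GFP:mCherry ratio. The tiles were fused to an estradiol-inducible synthetic transcription factor. Barcodes were sequenced, tiles below 50 reads were discarded, and activation activity was taken as the read-weighted mean of bin median fluorescence, averaged across barcodes and linearly mapped onto the initial dataset scale.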

Sequence	transcriptional activation domain activity
MAFKLSTAEKVYLALRLTLLTPFHILTSLIRSFILSLSRGLPPRLFWVCAVLR	49500
GISHNQLSNDDVLLNPSDTGFSPTDNGDGDDGEPHSTLRMAWLLTRVLEHAPL	46600
LFCLPDTAACGAMHAWRSWATSFLLFSFFAAICGQFFSLLFSYLLLFLCYWVI	42900
QLMTGPVLLDREVQTGHSGSLLVLVMSCWSLECFERRQALRKTVLALLGPLRE	70700
GRRRRKGEESRGRKNAEERKGGRKEGPGAGRVEAEGRAEATRTEKGEEGGSGG	34800
ASASREKGKGKGREEEKKEGESKGKEKGRKEEEKGGEEKGGEEEDDEDEDEDE	30900
VVKGDEVQIVRGSKKGAEGRVTQVYRKKWVIHVDRVERQKAKEQTVPVPVAAS	70900
GEEGEMSLTKDDLVELLEQDDNGWCRRSAPPARNRPVPAKPAATTNTVRASPV	< 6570
VMMAIIYLMVIFTFIIGVVAGVVPFLYFLSESHFLMCRKASETAGFLCLMFAA	33700
MFLSTVMTRSICTFIFVEFELHGDAKSLCCGGLCRFCRLCSKVGVNYYSPCWW	73000
MGLLVIMEVVFCVINLDALFFFLLSLLLLFLTFFSFFRIMMEFIVFLHVSFYF	61400
MLTHLHFVEQPLTPPFFSVSITSFLLRSFAFPPCVLPSVAFFLCLFCFLPLLV	56500
EKKEGAEKEGGEKKEAGGEGEKKVGGEGEKKEGGEGEMKESGVEGGKKEASES	26600
KAEPKKEAAKGPRNVSGVTVDDKKEGKGKAAKKGDRVEMRYIGKLKSGKVFDS	36900
RIMLQNAILPWFGKHDLRGKVFGCQIIELFHIFGMSFLNWIWSSGLVLATFPP	56600
MYYLYLSFCFLIVFFFFFFPLYCCCRLLFFSSSFVLFLSVLIILIPTFHAFFP	67800
LETGSFQNYYQKMDAENADRVYSKGVKLIASGTLPSGIFNREELFEEDSFYKY	68400
RRSHRSHHSSRSRDEEGKERRSSRGEDEKRAHRSRDEDEGRRRRRSHRDRDEE	18900
MSEPPRKRAKLACVTCNSRRVKCDVTDRQPCTNCITANVHCETRESKRGKHPR	40500
RPSLASSTATATATTTRPAADAASTTRAPRASLAPSTKPTTTRPAVAAAATRT	33500
CNICVLLCQIIEVASLVEQRDTIELIKTRYLNRLKLMKPDDVLQTYVSTLLNA	32400

Sequence	transcriptional activation domain activity
FLVCSFHHSIFGFFFWLFFDFFSFLHWRLCVLFPFWFRSKSSFPSFFFIVIIS	51300
ERKRERREKKEKEREREQREEREKSKERSGKKNGKDSEKRRERRGEKGSEERR	32800
MSDLPLFFYFYFITVCITSWRFTCILAPGLFFSFYFFLCFFCLFSLLSLHDLM	20700
YGILTLQYLVGVIWVLDTLHTIFVTHMVYTYLVTNFGDYLALGHNIWSFNLHV	37100
GDESRIDTKFFFGCVGLSNVVFIWPVLVLFHYLGIERFGLPPSSRIWWLLLLN	50100
GYIVFLSMVMIHTDSRLDHLGKRSVLSEENSKNSWQLLVLFLHQLSTYWLLPK	57900
ALTLVDPQGVLKCRIVLFCVIRGSVMVLGWWNYKLMHRWLLPGIIQCLSNIPV	64500
RRVWLKYILYFVYGIVDWVYSTSLLKTMVWLRLPLYITVGKHVLVGLVGSMWV	50000
EHHLLKALVDVIKRAMLISAQGASGRFEAKDLHLEHMIYWLKYFLNRAVCIAL	62700
RVFTKIRRLLIRLKKHDIHAVCAALLTYIFWPTAFLRAYCLDSIYYDPASRDK	54100
NSTIHNLFEVVLLPDLCGFCCFSMRFVVLIDLIGTLTLPVSVVYLVYLIYVIA	46800
AINTAKAEIDGVREIMTENIERVLERGEHMSVLVDKTGRLGENARDFRVRSRT	29100
FLHLLKYIRPSFAFYFTILFWWCIQVQLLLQIIINRIRVIVPDRRHSRHIMIA	68800
EEEQPKKKSARKKKNAEDEDEDWDAKPKPKAKPKAKAAKKKAADGEEAGDAEK	26200
GWNTHRAQTYTQLAKHLQSHGFHCKQYLGWLCHNIVAIEVYWMMIHLKRILPL	56300
MVLSILEIICAVVVLHPSCNYHIFSQCICEFSSWSFAISALLVVVLFWAAVAR	56000
LIVIRIVNPVIMYFFISCFYSLLSVAFQVPFNRYYGSSGFVIYWMMSWLAMCA	55900
LSLAGSNYFGICWNPAVKNCIPYDTYLLWIRCMPFWYLFVFLYDILPPILIVY	52200
GILPPLLLAIVFGVLPFILRGLAWYECVPRYSLMSISVYRRFYLFLLIHGFLI	51900
MYVLAISQTRAWTNLNLFRSCMVGLVNLCVILLKMLPIVVFCTLWYNVDLNIP	73400
RKRKASASPERDEEGKSGPKGRGRTARRGSKAGRGKSGGTQRGGRKGASEREV	38500

Sequence	transcriptional activation domain activity
LTVLGWLSTRKNMSFKSTPSNIRQSLKYSHIPLCLFYSSFTKFFLLLLLSIWD	42100
MYIQYNILLTFPFLFLHFLFLFFFFFFFFLLFFFFLSRSPLTPSLAPPSPLLT	65300
MPIGCLMRQVHWHRAEMREYQACLLIFQALLCTTGDPFAHILMYMWFGILYRF	58800
AGRGGERRRRGLRRGRGRGAGAAARGRDGVRDDGERVAARVRVRVCARVCVCV	42600
FLHLLKIIRPSFAFYFTILFWWCIQVQLLLQIIINRIRVIVPNRKLSRHIMWG	66300
RDAEKGKEKRRSRSKNRDEKMEHAEEATGGEPSREHKADSGKKSRRSSIKKSS	29500
TLTDKCFGAFEDENAIHFHNFHVVSPKYMVILVNCLYMWDLMKTVGLRKPWSG	68200
TRNSCVKIEKEDSLTNLNEIDFTNMFCNDNFIQNYNQGLMELLTEPTPGPSSS	64700
RNIGTGPSAPGGVDHKRSRACESCRGLKVRCEPANEANLQGSCKRCAKAGRHC	40400
SRLCLVSVGECLLLLSLVWGLLLLISLYLVLFFLHCVCMSGLFLCDLFELFVT	64800
EKKRLLREKNKKRKRGEEVSDDEEEQKEEAAKKAKSEKEDSKHGIWVGNLHFS	50100
VQVVGVLCVGWSLKVWTMHLLGDGGVAVLVKGRTRTVPMAWEEWGAVVEVMRG	40300
SKMLTEFKQKLRLDYFMLLDLRLWKDMRMCLRKMFISTLVANLSYKRILGVRF	73200
IRGMCPEKPQIREIVYLLRGLIVNRILLMTLKKRWNVQYGLHSTRDPIAVPFH	53200
RNLAAAAAGATAVGLAAKAIHDHRARSRSRSSSASGSDRGHRHNAVLGLGAAG	42100
MACLFPCMLIFIFLLFISSFFLCFFHSLVSHLPHCVLVLFFISFLLTILTFFF	50200
KKGRRGRRRNRRGRKEGESEKGRKGGKGKGRKGEEQRRVRIKKGSRGTGEGEK	< 6570
KQYCVRPNSGRIEGGGEVEVQVLLQAMKEDPPLDAKCKDKFLVQSVAVAADRE	46900
RFISLAFFDVVSCSVWLSIYHLLVLRFFLDLQSCLSFLLLYIRPSFPCLLIPR	50500
MRILQFFSFLYLLLYFSRTLLIVIYTLVILLLNQLLVFFKFLSLFFAFFWYVF	41400
SSSSSSSSESGSESDSGSDDGSASGSGDNSSTSSESESESDSGSEVDEKNNKN	33900

Sequence	transcriptional activation domain activity
MVCTLDHFQFVGLIYFAFFFIVISYFIDSVIFILFFVYFPFFVFLLLFVIAFY	54800
NWYFLGTTMYFLYGESVIYYFKHIVLVDKVLLPFATHHRFISFMLYVIGFVFF	59100
SLSSSRVLGEHGNGPDGEGGFVHVSYRISLDEENELQMRVRPSERGGGEGVDG	39200
AMLMSLFVSVFCVYGVFIHVAASALQYQIVFFSPCIYMMLICGLSFLCCESPR	75700
KLWKKPIIVVMAAMPIIMDGVGNLLIPYLHSFVLHSLLFCHKKVAFLMLLLIF	59100
TDAGPGEEDEEVVHEVRAKALRHVPVKPDDDADSKKKNNSPWQPEGLGPLRIL	34200
EHSTTGDSWFLGLVLCYPLRSYGYFMLFFIWLRLFLVLAFQFLLYACNYLFIL	62200
MGVLFCVWSKFMGLHYSLVFFFVYPFSHCFSLLFPFFFFTIMSWYIVFYHTCF	70300
GDFESKCYLFEPSELRFPPHVFSLTNGRLYRRWYFLDLQSGMLFRFFYICDWR	32700
DAGSGGGEVRRAGGSGILKESGTFGDCRCLSRYASAASLRVHVLLCWENALSA	40400
FYPIGRRWQWYWGLWVCACALISLFSNIEVDRYYLQSLPITITIFFWYLMCMG	28200
RFLSFLLLLLVFFYPFVFFVLALVLCTFWSLFPSNTPLHSLVCRLQLLHPFVF	41400
MKILSFLCTYSLSFTLTIPNSLLSFLRTLFNFTNNYKYMILLLLGYLCLIGLF	35600
DDLQQLLEDLGNIDHSDEKLWKEITDQAMWLGNTMDPTAAAGSEIDFTDYLGP	144000
GKEKKDGEAAAPAAANHAPAEASAPAQTSSRPEGGERGRGRGRGHKGERGGAG	43200
QPPPPPGRKRKKAENGEPSTPAEPRRLRRSHEACARCRSKKIKVSTQASAVIL	53600
GVRKDRQQMYFILATNSMIDLGFVVASFVPLVLLWIGGMGYLRVVWRVTLGLG	51400
GSYCISLVNVLVAFGVVLLHASTSGLWHWNPPFRAPNSVVFIYLLSNIFLITV	55000
MEDAADDGAASTKKAKVSKKRKKDIESDGEQEKPAKTPKTKLKLNNKTPKEAS	48700
TDDAPRVKTKAEKEKEKKEKEKQRKKEMAAKKKANAPAKQEAAKPAETKAAAA	41100
